Data reported in the DeepSol protein solubility set.

Experiment: soluble on expression in E. coli; label from the status in PepcDB or PDB records

Row | Sequence | soluble on expression in E. coli
1 | MGSDKIHHHHHHMFVNRRAELKILHSAYESLKRGEKVNVAIIGPRRIGKTELLLKFKEEVNGVVPYLNLQRIGSLESFIFAYTRELLYEIAKVVGMSIERSDLLTWDDLLILSAKLDLEREVKAIRDGTLETLFEMQEAILEKTGQKAVFILDEFQEVVNFKGFLETMRAVTEKQRNIAYFISGSAVRMMEEILAPKNPFFGQFKRVYLRGLPKEDTIELAKTTLERAGIEATHSALELIYKLTQGHPFYVLALCRRLIEEGFEKVKSRDVYYAFLTELLSEKGDIYMHLEYLFNESLSRAYKGPIHKQILLILAQEEGLRLSEIARRLNKPSGEVSNYLKFLLRTDLILKQGERYYFTDKLMRFWLAKTYLGITELELRRERFLEELVRELEEKYLKAKKELGIAKEAMIRERMREIFDIDFKPYRRGDVEFDGVAFRDGVYVLEIKWRNRPATYKDVKDFIRKVKGEFGSATMFFFSRSGFTEKAKELCEKEGVKMLTPKDLGIS | not soluble
2 | MGSDKIHHHHHHMFYYERVNQFDTIAVSVDSVDRRRIKGTIDLDGLKFIMYFDYTQDVDIDYDLAGMIMTMPVINYAYFAKRIKLNFPVSLSFLKLVKEFIRINNIETFINSIVRRRYEFFLKEYLPSDEEITQENAEGRTEVLADISDGDKKKLEVDDRKVIVLSSGGKESLLTFGILKEIGAVVYPVFFNESGAHWKTAKVAYDYFSSKYENVLRVWSNVDRFYSFVNRHLKILDQDEIRRKADSYPVQMFIFPVYIFSVLPYVIKYGIGNIALGDELDDPIYEEPYHGIKHYYGVYDQTNDFNLTLTSFLREYGIHCKVFSAVYPIFGTLVEKILVQRYNDLFRVQRSCHLCHYEGGDVKPCGTCSKCLGVLLFMLNAEADPTEAGYSIEHVKQLEDNVNSASMRLDPDELEYLKAKVFEGRRINSHIEGIHQLPGENSAFSLVPERFRDGVRSIVSKYSTGFYKFVGSEWVKID | not soluble
3 | MGSDKIHHHHHHMGDKYLTLSELNLEGQLLGFVGGEPGKYKYLQLAVPSGNVEIKLPKELRRSLSLSLVPGQHIRICGHSKVDSRTSKIKIKAYRVTPIDGCPKQDLPPQIKARIMVCQKGGCLKRGGKGLLSDLEKTLCDRGLLDKVTIEHTSCQKCCNSAPNCVLHLGKKKYKNIHPDAIASLLESHLTE | not soluble
4 | MGSDKIHHHHHHMGFVKPFSKINGSIIMVILGLLASACGQSGSETGGLVDANEPVSPQPNLGEQQGVLEQNLPVPNNQQTDYFRVILYGNSHVSGLPSLIQLLINTGVPQVRVEVKNVGGGFLDESYYNDAYQARLTATPWTHAIFQGQKYSQSGTSIYPTTAAQKWLDKAKSLGITPILFPEHPQDGKLEEGEYVYQLHQGITSMQSSCLAPIPLVWERVIQLLPDVHLHAPDGNHASSLGNFLTALVFYEVITGRSADLLPYLSNIAISEQIQSIFGQVVSEVLADKPACPTF | not soluble
5 | MGSDKIHHHHHHMGFVSTTFDVLIIGAGPSGASAAVHAARTGLQTLLIDASSFPRDKTCGDGLTPRAIHQLELLGVADQVTGDYFNKGLKLHGFGGSVEAPWPETYFTNKGSAMSRMEFDDLLFRLAKSHEEVTTWENASAQDPILRGNFLEGVVINHAGQEKTVKAKHVIIADGVRSPFGKKLGRQWQRDEVYGIAARAYCETPLSDEPWIHSHVELRDEDGVVQPGYGWIFPLGNGTVNLGCGALSTDTRPAKINTKKLLSFYAGQRRKAWQLGPEHDVASALLPMGGAVSNVAGANWMLIGDSAACVNPLNGEGIDYGLETAAMAVDTLVENPKRDLTLVWPHRLRDAYGETFMLARTAARLLTYPQFLPMAGPLAFRGPLQKAIMPAAARLMGNLITEEDKDLLARGWQAAGSAISWARKGSPLWDSTSSLV | not soluble
6 | MGSDKIHHHHHHMGIIATSFIPFRGLSVSNLSETNFSETSNANVDPQEIAKFEKMAATWWDPEGEFKPIHKLNPLRLNYIDQAVGGLFGKRVLDVGCGGGILSESMARLGARVDGLDMGAEPLDVAKLHALEMGVEINYIQDTAEHHRDSHQGQYDVVTCMEMLEHVPDPASVIKACSDMVKPGGYVFFSTINRNIRAYVETVIGAEYLLKMLPVGTHDHKKYIKPAELIGMADAVDLECVDATGITYNPLTEIFRYTKSLDVNYMIATVKQDD | not soluble
7 | MGSDKIHHHHHHMGIKIPNMKPNYSLDDMRCFCMVAQYGSFKQAAVALQMPLSTLSRRIAKLEQDLALRLFNRDAHRVQLTFAGQRYYRRSAPIFDELDNVAACLQQDRNEAKGTIRISAPINFSVQVLVHHFNAFMRQYPDIELDLKLSNQTIDIDEEAMDLAFRIGHHSATHWIGRQLTNIRFAICGPANLDVSHIKAPADLAGLPTVLCSPMLTWSLQHIHSGEKQAYTATDNIRLKVDDMSLLTEVIAGGIGVGFIPDYHAQPLLESGKIQHILPAWSNQARGCEMLYRDRENIPYRVRLFIDFMLQRFKSNDGVM | not soluble
8 | MGSDKIHHHHHHMGIRAGESGNSLSKALLEIEKEQPAPCYLLYGDAEYEISDAFTKIIDALLSPEDQALNLFVLDGEDEDPERIGENLMTPPLLPGRKVVAVRRTQLFSSRKTLKDLVKRIREQLNGKPQQAAKTFMTFLSLAGWNLEDFKGDGWKAISDKDWQTTVEGDAGEDRIKWLPQVVEVCVDLGLKGRSATGGGTDHLEAILRDGLPAGNVLLLTAESVDKRKKLFKTISELGRVLPFVVEKGEARQKNTLMDSARDLLATRGKRMSSGAWEVLGRKTGFQLRNSMAALEKLITYTGERKTIEVSDVEEVISRTREDKVFDLTAALAEKNLKGALSVLRSLREQGIHSLVILSMIVREMRLLLHARQLRNEGALPGYQPRMDYGRFQKSIYPTVKGWAGQAGDVHIELADSHPYVVFNILRNSENFSEKRLKRHLEDLLAMDLAMKSTAKDADLMLERFLIDVCRP | not soluble
9 | MGSDKIHHHHHHMGIYMRDDILDIITLTTDFGTNEGYVGAMKGRILNILKKYNKDAKIIDISHEIKPFNIYHGAYVLLTAIPYFPPSVHVAVIDPTVGSERKSIVIETKSGYYLVGPDNGLFTYVAEKLGIKRIIKIDEERYKPSSTFHGRDVYAVVGAEILINNGYDGEELDEMVKIDETKKRVIHIDRFGNIITNIKKDEVTFKYYDTIMIKIRHKNGIEKIIKCKFVKSYFEEKNNFICLINSEGFLEISKFMDNASKLLNVDYLDEIEIIY | not soluble
10 | MGSDKIHHHHHHMGLEDLYLSWPKWFSEALARYSSLEGALEGVEEIYYCGMGGSGAAGDYIEALLSIYAPQGPEFRVVKDFRPPRPPRHRGYGLVLASYSGNTLETVECGSLLSPAAGRVVAVTSGGRLLEMAKERGWLVARLPGGILPRVSFPWMLAASTAMLSGALGVDLEALKRLAGGLDTQGLKGEAERLAGFISRYRIASLVTCGPGIPLAVRLKNELAENAKMPSRLEIYPESSHNDIVALEAAEGLYGAVFIWIEHEGSLCPAVLDVVEGIYREYGVDTISIESSARGGPNATVAEYLSRTLVFGLASVRLALMRGFNPEETPPIDKYKRRLGEALRSQA | not soluble
11 | MGSDKIHHHHHHMGLTLRQIEVIRAVMIAGTIAGAARLMNVAQPGVSRTMKHIESALGIKLFVKKAGRYVPTDEARDIFAQLQEVHRKVDDLQSSIGQLERGRGVELALGSVPSIANAMMPQAIAGLMRRYPDIRINFDILRIEEAIDYLLLGKGELVAMSYHLTHPSITFEPLSKGHLVCIAAREHPIAGRSRISAREIAEHPLIGIDPRDPYGAIMAGIFEREKLEYRTPIRARFGTTVCALVKRNLGIAVIDAFTVGGMADQGLAVIPISEDTEFQTYVAYRADAALSSYAERLVTTLRRVMDDSTGRSRGGRDA | not soluble
12 | MGSDKIHHHHHHMGMNQISQDQIGQARILVVGDMMLDRYWFGDVERISPEAPVPVVQIKRSDERLGGAANVARNSAALGAQVGMLGVVGDDEPGRTIESLLSACKVQPYLHRDASVNTTIKLRVLAHQQQLLRVDFENPPTHEVLLSVLEGFQELVKQYEVLVLSDYGKGGLTHVGRMVEAGRAAGRMVLVDPKGDDYSRYRGATLITPNRAEIRRVVGAWKSEQDLTARAQNLRRDLQLEALLLTRSEEGMTLYTEAEVLHVSAQAREVYDVSGAGDTVIATLATMLAAGVSLKQAVQFANRAGGIVVGKLGTAVVSYPELFGAAG | not soluble
13 | MGSDKIHHHHHHMGPYRFVNREFLIITYRTDMDRLREIVPEPLEVKEPLVHYEFIRMPDSTGFGDYTESGQVIPVEYKGQPGGYTLAMYLNDHPPIAGGRELWGFPKKLAQPTLQTHIDTLLGTLDYGPVRVATGTMGYKHQELDLEEQAKRLAGANFLLKIIPHVDGSARVCELVRYYLQDIEMKGAWTGPASLQLAPHALAPVADLPVLEIVEARHLLADLTLGLGEVVYDYLAQ | not soluble
14 | MGSDKIHHHHHHMGRMKNTFPFVITISRQLGAGGAYIGQQLAKKLSIFYADREIIGQAARKLSVMEEELEPRDEKSLSLWQFLIQSCACTPETSYIPPQITVPSDRELFKTESEIITRIAQEHSTVIIGRCGSYILREHPNHVSMFLHGDLSFRKSRIQKIYHVSENVAEKMIVQSDEERSQYHYKFTGKDWADARQYGLSVNTGRTGVDKTVDCILTYLELIKVRDCIP | not soluble
15 | MGSDKIHHHHHHMGRTLGVGTVTPNLIGAHRDLIQRYGGHYPVISAHIWFDGTGLDPRYQYVTVLRDPVDRFISWLYFIDKDVELTEDTRELKVGAQLFLRSEGEETNQTFMRSASNPYVNNFSSVVMRCNASWQQKMVAALSVLTDYDLVGFQADLPQFIEQLAKLLHVINYVSLRPVNVTSSRPQRDGISEKMLHAIRKLTEWDLELYSEIQRMANRQAPTIGVSCNIQPFNREFGDWGFKARKSSNVYWLGSYLTHYLAKDLSTRNGSVAGRALVSNGAKGYLCHGPYLDLDPGHYCAVANGVWITRGVTCNADVCSGKGAVLHAEETLVDLGAKGTEWSLPVDFALDEETTSVEFRLMVPDEHQVQLNTVTIVNEKMVMTILGLEPDSHAANRGVEKQNSGSTLIFPVQMSSKIGLRVGTTLQTTGQEGFLCYGPYMTLSRGIYRVNLMGSIGPQGLAGAYADIVCDAGKKGIHNEPLAITPFNEYVDSTVGKPWMFFLEQDVSDLEIRLWVSNQTEINLCGIVLQQIEET | not soluble
16 | MGSDKIHHHHHHMGRVLIIGAGGVGTVVAHKVAQNADVFTDIMIASRTKEKCDNIVKAIGNPNIKTAKVDADNVDELVALFNDFKPEMVINVALPYQDLTIMEACLKAGVNYLDTANYEPKDEAHFEYSWQWAYHDRFKEAGLTAILGCGFDPGVSGIYTAYAAKHYFDEIQYLDIVDCNAGNHHKAFATNFNPEINIREITQNGRYYENGQWVTTGPLEIHKDLTYPNIGPRDSYLLYHEELESLVKHFPTIKRARFWMTFGQEYLTHLRVIQNIGMARIDEVDYNGTKIVPLQFLKAVLPNPQDLGENYEGETSIGCRIRGIKDGKERTYYVYNNCSHQEAYKETGMQGVSYTTGVPAMIGAMMFFKGEWQRPGVNNVEEFNPDPFMEQLNKQGLPWHEVFDKDLEL | not soluble
17 | MGSDKIHHHHHHMHEVVQDYYGKQLQSTEDLKTSACCDVSNMPSWLKPLLANIHDEVLSRYYGCGLVCPALLEGCRILDLGCGSGRDVYALAQLVGSTGHVVGVDMTDEQLAIAKQHQDYHVDKFGYDNVTFLKGYIEKLDELNLDPNSFDIIVSNCVINLSPDKAAVMASVQRLLKPGGEFYFSDVYADRRIPQQLINDPVLYGECLSGALYWKDFERLARHADFLDPRLVEDRPLEITDPLLAAKIGDIQFFSATYRLFKIATLEDACEDHGQAVIYRGTIDQLPHHFNLDKHHAIETGRVFPVCGNTFRMLKESRFAKHFDFIGDDSRHYGIFAGCGDILPFGNQANIVSDSNVGQSVNSGSCC | not soluble
